Test results reported in US12091776B2, “Protease activity profiling via programmable phage display of comprehensive proteome-scale peptide libraries” (THE JOHNS HOPKINS UNIVERSITY, priority 2019, dated 2024).

Columns and labels:
Caspase-1 [1] = molecular target: T1, Caspase-1 (Homo sapiens, UniProt P29466); assay: SEPARATE assay: 56-amino acid mouse peptidome library digested with Caspase-1; format: biochemical; details: selected peptides, mouse library (56-aa tiles)
T1 construct: purchased BioVision
T1 sequence (P29466 120-297 limits assumed): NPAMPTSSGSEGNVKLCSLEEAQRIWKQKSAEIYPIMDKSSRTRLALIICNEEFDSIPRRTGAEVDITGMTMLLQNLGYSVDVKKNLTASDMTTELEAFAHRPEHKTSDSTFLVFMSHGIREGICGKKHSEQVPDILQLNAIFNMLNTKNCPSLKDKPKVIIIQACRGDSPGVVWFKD
T1 sequence (P29466 317-404 limits assumed): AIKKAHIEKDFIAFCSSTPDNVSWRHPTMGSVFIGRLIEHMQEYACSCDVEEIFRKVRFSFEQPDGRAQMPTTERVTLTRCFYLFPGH
Description: (§1) Streptavidin-coupled magnetic beads (Dynabeads M-280 Streptavidin, ThermoFisher Scientific) were washed (TBS, pH 7.4, 0.01% NP40) and resuspended in binding buffer (TBS, pH 7.4, 0.001% NP40) containing 2E9 plaque forming units per 10 μl of bead slurry. End-over-end mixing at room temperature was performed for one hour. Phage-coated beads were washed three times with wash buffer and transferred into two protein LoBind Eppendorf tubes blocked with TBS, pH 7.4 containing 1% BSA.
Digestion occurred overnight at room temperature with end-over-end rotation. […] To remove any residual biotinylated phage that may have been nonspecifically released, the 150 μl supernatant of the quenched digest reaction is then incubated with a fresh 10 μl of slurry volume M280 streptavidin beads (pre-washed three times with wash buffer) in a LoBind Eppendorf tube blocked with TBS, pH 7.4 containing 1% BSA at room temperature for one hour with end-over-end rotation.
10 μl slurry volume of protein G magnetic dynabeads were washed in buffer (TBS, pH 7.4, 0.01% NP40) and then resuspended in 50 μl TBS, pH 7.4, 0.01% NP40 containing 4 μg of M2 FLAG antibody for thirty minutes at room temperature with end-over-end rotation. The 150 μl quenched digest reaction is added to the 10 μl FLAG-coated Protein G beads and incubated for 60 minutes at room temperature with end-over-end rotation to capture phage particles released at the protease digest step. Beads are rinsed once with 100 μl wash buffer and stored at −80° C. until PCR amplification.
Library PCR preparation, high-throughput DNA sequencing, and peptide read count data generation was performed as described previously.^44 Briefly, library peptide inserts are amplified by resuspending 10 μl of FLAG-coated Protein G beads in PCR1 master mix containing the T7-Pep2_PCR1_F forward primer ([…]) (SEQ ID NO:3) and a T7-SEPARATE vector specific reverse primer ([…]) (SEQ ID NO:4), which includes an adapter sequence for sample-specific barcoding and Illumina P7 adapter incorporation during a subsequent PCR2 reaction. The PCR2 amplicons are pooled and sequenced using an Illumina NextSeq instrument in standard output mode to obtain single-end 50 nucleotide reads. Dual indexed sample demultiplexing and clonal read count determination were performed using exact sequence matching. […] To calculate the normalization factor, 100 peptides were randomly selected from the mock digest conditions with a read count ranging between 10 and 40. The median read count value for these 100 peptides is calculated for each sample. The random peptide selection and median calculation is performed 20 times and the average of the 20 median values is calculated for each sample. Finally, the normalization factor is calculated by dividing the average median value for each sample by that for one of the mock digest conditions. Read counts are then converted to normalized read counts by dividing each sample's read count values by the normalization factor. Fold enrichments are calculated for each peptide by dividing their normalized read counts in the digest condition by the normalized read counts in the mock digest condition. The fold enrichments can be visualized in an MA plot by transforming the normalized read count data into a log ratio (M, on the y-axis) and a mean average (A, on the x-axis) between the digest and mock digest conditions.
The performance of the SEPARATE assay is expected to depend on protease-substrate requirements as well as biophysical features of the peptide library. The present inventors have verified by PCR and Sanger sequencing that 90% of the immobilized human library lacks in-frame mutations. […] To explore this further, a 56-amino acid mouse peptidome library (unpublished) was used in which both IL-1β and Gasdermin-D cleavage peptides are better represented. […] Mouse IL-1β and Gasdermin-D are highly similar to the human versions and can serve as substrates for human Caspase-1. […]

Caspase-1 [2] = molecular target: T1, Caspase-1; assay: SEPARATE assay: human peptidome library digest with Caspase-1; format: biochemical; details: unstimulated THP-1 cell lysate supplemented with 0.1 units of recombinant Caspase-1
Description: as §1
Digestion occurred overnight at room temperature with end-over-end rotation. […]
Library PCR preparation, high-throughput DNA sequencing, and peptide read count data generation was performed as described previously.^44 Briefly, library peptide inserts are amplified by resuspending 10 μl of FLAG-coated Protein G beads in PCR1 master mix containing the T7-Pep2_PCR1_F forward primer ([…]) (SEQ ID NO:3) and a T7-SEPARATE vector specific reverse primer ([…]) (SEQ ID NO:4), which includes an adapter sequence for sample-specific barcoding and Illumina P7 adapter incorporation during a subsequent PCR2 reaction. The PCR2 amplicons are pooled and sequenced using an Illumina NextSeq instrument in standard output mode to obtain single-end 50 nucleotide reads. Dual indexed sample demultiplexing and clonal read count determination were performed using exact sequence matching. […]

Caspase-1 [3] = molecular target: T1, Caspase-1; assay: HUWE1 cleavage assay using recombinant Caspase-1 in THP-1 lysate (Western blot); format: biochemical; details: recombinant Caspase-1 added to unstimulated THP-1 cell lysates; time-dependent
Description: Recombinant Caspase-1 (rCaspase-1) was diluted to 0.1 U/μl in 1× mammalian cell extraction buffer containing 2 μM Dithiothreitol (DTT). This buffer preserves enzymatic activity of proteases. Unstimulated, PMA differentiated THP-1 cells were also lysed in 1× mammalian cell extraction buffer with 200 μl of buffer to lyse one well of a 6-well plate (˜1×10^6 cells). Protease digests were set up with 50 μl of lysate (˜250,000 cells).
30 μl of protein lysates were mixed with 10 μl of 4× NuPage LDS sample loading buffer (Thermo Fisher, Cat. No. NP0007, final concentration to 1×). 4-12% NuPage Bis-Tris gels (Thermo Fisher, Cat. No. NP0321) were loaded with 35 μl of each sample along with high molecular weight standards (HiMark protein ladder, Thermo Fisher, Cat. No. LC5699) and resolved in 1× NuPAGE™ MES SDS Running Buffer (Thermo Fisher, Cat. No. NP0002) at 150V for 50-60 minutes. After suitable resolution of proteins, the gels were transferred to a PVDF membrane by the ‘wet transfer’ method using 1× NuPage transfer buffer (Thermo Fisher, Cat. No. NP00061) overnight at 4° C., 50 mA constant current. After transfer is complete, the membranes were washed in 1× tris buffered saline containing 0.01% Tween-20 (TBS-T), blocked for 30 minutes with 5% milk in TBS-T and probed with primary antibodies and HRP conjugated secondary antibodies with TBS-T washing in between. […]

endogenous Caspase-1 = molecular target: T2, endogenous Caspase-1 (Homo sapiens, UniProt P29466); assay: In vitro stimulation of the inflammasome in THP-1 cells (Western blot); format: cell-based; details: PMA differentiated THP-1 cells, LPS and Nigericin
T2 construct: endogenous in cells; host or cells: PMA-differentiated THP-1 cells
T2 sequence (P29466 120-404): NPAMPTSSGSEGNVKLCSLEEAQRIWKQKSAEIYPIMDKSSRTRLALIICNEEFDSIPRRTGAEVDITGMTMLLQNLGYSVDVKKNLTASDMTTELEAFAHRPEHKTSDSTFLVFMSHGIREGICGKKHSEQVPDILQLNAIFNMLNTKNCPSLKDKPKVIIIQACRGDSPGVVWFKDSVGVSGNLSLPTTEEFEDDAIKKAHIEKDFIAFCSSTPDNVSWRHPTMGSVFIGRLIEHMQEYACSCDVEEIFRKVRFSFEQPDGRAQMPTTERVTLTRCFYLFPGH
Description: THP-1 cells were cultured in RPMI-1640 media with Glutamax (Gibco, ThermoFisher, Cat #61870127), supplemented with 10% FBS (Hyclone SH30071, GE Life Sciences), and 1× Antibiotic-Antimycotic (Gibco, ThermoFisher, Cat #15240062), referred to as complete RPMI. To differentiate THP-1 cells into macrophages, 1×10^6 THP-1 cells were added per well of a 6-well plate in complete RPMI medium containing 50 ng/ml Phorbol 12-myristate 13-acetate (PMA, diluted in RPMI medium from a 1 mg/ml PMA stock in DMSO, Millipore Sigma, Cat. No. P1585). After 48 hours when the cells become adherent, the medium with PMA was removed, cells washed in 1×PBS once, and fresh complete RPMI was added. Cells were allowed to rest for an additional 24 hours before inflammasome activation with LPS and Nigericin.
A 6-well plate of PMA differentiated THP-1 cells were treated with 0, 1 or 0.1 μg/ml LPS (Millipore Sigma, Cat. No. LPS25) for 3.5 hours. After 3.5 hours, cells were treated with 2.5 μM Nigericin for an additional 30 minutes to activate the inflammasome. Cells were washed in 1×PBS and lysed in 1× mammalian cell extraction buffer (BioVision, Cat. No. K269) containing 2 μM Dithiothreitol (DTT). Nuclei were spun down by centrifugation (10,000 rpm, 5 minutes, 4° C.) and the cleared supernatant was used to perform Western blots. […]

Thrombin = molecular target: T3, Thrombin (Homo sapiens, UniProt P00734); assay: SEPARATE assay: human peptidome library digest with Thrombin; format: biochemical; details: human library, Thrombin
T3 construct: Thrombin (a serine protease); purchased SignalChem
Description: The PCR2 amplicons are pooled and sequenced using an Illumina NextSeq instrument in standard output mode to obtain single-end 50 nucleotide reads. Dual indexed sample demultiplexing and clonal read count determination were performed using exact sequence matching. […] To calculate the normalization factor, 100 peptides were randomly selected from the mock digest conditions with a read count ranging between 10 and 40. The median read count value for these 100 peptides is calculated for each sample. The random peptide selection and median calculation is performed 20 times and the average of the 20 median values is calculated for each sample. Finally, the normalization factor is calculated by dividing the average median value for each sample by that for one of the mock digest conditions. […]

GSDMD 259-315: 56-amino acid mouse peptidome library peptide of Gasdermin-D (NVLAALCSIGKQLSLLSDGIDEEELIEAADFQGLYAEVKACSSELESLEMELRQQIL; UniProt Q9D8T2 259-315, looked up, fragment)
Caspase1 fold change (Caspase-1 [1]): 6.78 fold

HECT, UBA and WWE Domain Containing E3 Ubiquitin Protein Ligase 1 [HUWE1]
enrichment in SEPARATE on a complex biological mixture (Caspase-1 [2]): among the most significantly enriched targets
cleavage of endogenous HUWE1 (Western blot) (Caspase-1 [3]): robust cleavage
cleavage by endogenous Caspase-1 upon inflammasome activation (Western blot) (endogenous Caspase-1): cleavage

Fibrinogen
scoring in the SEPARATE assay (Thrombin): did not score

HUWE1 2291-2347: 56-amino acid mouse peptidome library peptide of HUWE1 (QDPGEPGEAEVQEEDHDVTQTEVADGDIMDGEAETDSVVIAGQPEVLSSQEMQVENE; UniProt Q7TMY8 2291-2347, looked up, fragment)
Caspase1 fold change (Caspase-1 [1]): 6.13 fold

HUWE1 2328-2384: 56-amino acid mouse peptidome library peptide of HUWE1 (VVIAGQPEVLSSQEMQVENELEDLIDELLERDGGSGNSTIIVSRSGEDESQEDVLMD; UniProt Q7TMY8 2328-2384, looked up, fragment)
Caspase1 fold change (Caspase-1 [1]): 23.12 fold

GSDMD 222-278: 56-amino acid mouse peptidome library peptide of Gasdermin-D (LLIGSKWDILLVSDEKQRTFEPSSGDRKAVGQRHHGLNVLAALCSIGKQLSLLSDGI; UniProt Q9D8T2 222-278, looked up, fragment)
Caspase1 fold change (Caspase-1 [1]): 4.23 fold

IL1B 74-130: 56-amino acid mouse peptidome library peptide of IL-1β (WQLPVSFPWTFQDEDMSTFFSFIFEEEPILCDSWDDDDNLLVCDVPIRQLHYRLRDE; UniProt P10749 74-130, looked up, fragment)
Caspase1 fold change (Caspase-1 [1]): 13.23 fold

IL1B 75-131: 56-amino acid mouse peptidome library peptide of IL-1β (QLPVSFPWTFQDEDMSTFFSFIFEEEPILCDSWDDDDNLLVCDVPIRQLHYRLRDEQ; UniProt P10749 75-131, looked up, fragment)
Caspase1 fold change (Caspase-1 [1]): 8.80 fold

IL1B 0-56: 56-amino acid mouse peptidome library peptide of IL-1β (MATVPELNCEMPPFDSDENDLFFEVDGPQKMKGCFQTFDLGCPDESIQLQISQQHI; UniProt P10749 1-56, looked up, fragment)
Caspase1 fold change (Caspase-1 [1]): 8.10 fold
